Data: publication PMC6201861, “Generation and characterization of novel recombinant anti-hERG1 scFv antibodies for cancer molecular imaging” (Oncotarget, 2018)

Legend:
[1] = molecular target: T1, S5-Pore peptide (Homo sapiens (Human).); assay: ELISA; S5-Pore peptide as coating antigen; 0.1 to 10 ug of scFv (Alexa488 conjugate at 1 ug); revealed with anti-6xHis antibody then anti-mouse IgG-HRP; OD450; conditions: both partners purified
T1 construct: peptide of the extracellular S5-P loop of the human hERG1 (Kv 11.1) potassium channel; also called antigenic peptide; raising peptide
T1 chain: EQPHMDSRIGWLHN

[2] = molecular target: T2, hERG1 potassium channel expressed on hERG1-transfected HEK 293 cells (Homo sapiens (Human)., UniProt Q12809); assay: immunostaining of cells or tissue; indirect immunofluorescence on fixed HEK-hERG1 and HEK-Mock cells; conditions: one partner purified
T2 construct: human ether-a-go-go-related gene-1 (hERG1, Kv 11.1) potassium channel; cell culture details are in the Supplementary Materials; also called HEK-hERG1; HEK 293 hERG1; source: HEK 293, transfected, on cells
T2 sequence (Q12809 whole entry): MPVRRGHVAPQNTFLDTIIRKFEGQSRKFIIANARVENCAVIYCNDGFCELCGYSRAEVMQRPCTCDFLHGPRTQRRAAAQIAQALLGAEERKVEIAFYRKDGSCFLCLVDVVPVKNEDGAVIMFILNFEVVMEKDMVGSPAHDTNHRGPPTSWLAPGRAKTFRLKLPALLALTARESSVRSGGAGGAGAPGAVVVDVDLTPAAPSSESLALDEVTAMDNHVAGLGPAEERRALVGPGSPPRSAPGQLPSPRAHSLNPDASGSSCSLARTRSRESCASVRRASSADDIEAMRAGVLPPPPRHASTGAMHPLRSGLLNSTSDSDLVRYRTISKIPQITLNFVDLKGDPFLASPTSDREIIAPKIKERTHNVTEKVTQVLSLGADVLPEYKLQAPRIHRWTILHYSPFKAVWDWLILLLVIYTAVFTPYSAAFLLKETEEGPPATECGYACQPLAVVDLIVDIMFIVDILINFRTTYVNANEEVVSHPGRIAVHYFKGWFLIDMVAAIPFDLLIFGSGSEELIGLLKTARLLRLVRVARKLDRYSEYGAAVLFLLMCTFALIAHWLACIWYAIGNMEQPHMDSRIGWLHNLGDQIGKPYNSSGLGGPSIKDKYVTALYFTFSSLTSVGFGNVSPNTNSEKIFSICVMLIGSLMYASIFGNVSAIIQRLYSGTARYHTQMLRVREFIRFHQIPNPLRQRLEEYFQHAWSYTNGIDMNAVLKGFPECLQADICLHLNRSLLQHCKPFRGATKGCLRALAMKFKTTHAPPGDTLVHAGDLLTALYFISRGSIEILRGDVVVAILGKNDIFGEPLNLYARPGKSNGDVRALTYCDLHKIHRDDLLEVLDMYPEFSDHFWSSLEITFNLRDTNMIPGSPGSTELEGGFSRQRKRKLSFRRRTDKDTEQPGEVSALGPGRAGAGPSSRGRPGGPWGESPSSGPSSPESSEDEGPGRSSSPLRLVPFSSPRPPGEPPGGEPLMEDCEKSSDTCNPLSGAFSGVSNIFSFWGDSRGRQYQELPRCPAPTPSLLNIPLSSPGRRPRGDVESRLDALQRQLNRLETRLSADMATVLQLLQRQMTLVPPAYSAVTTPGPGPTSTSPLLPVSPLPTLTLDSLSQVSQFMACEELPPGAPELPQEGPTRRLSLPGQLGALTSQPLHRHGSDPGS

[3] = molecular target: T1, S5-Pore peptide; assay: SPR; Biacore T100; S5-Pore peptide amine-coupled to a CM5 chip; scFv flowed at 2.5, 5, 10, 20, 40 ug/ml; contact 120 s, dissociation 600 s, 30 ul/min; 1:1 binding model for scFv-hERG1, two-state reaction model for scFv-hERG1-Cys; conditions: both partners purified
[4] = molecular target: T2, hERG1 potassium channel expressed on …; assay: immunostaining of cells or tissue; direct immunofluorescence with the Alexa 488 conjugate on fixed cells (HEK-hERG1, HEK-Mock; PANC-1 in 2D and as spheroids); conditions: one partner purified
[5] = molecular target: T3, hERG1 potassium channel endogenously expressed on cancer cell lines (Homo sapiens (Human)., UniProt Q12809); assay: as above; conditions: one partner purified
T3 construct: human ether-a-go-go-related gene-1 (hERG1, Kv 11.1) potassium channel; also called hERG1 on PANC-1 cells; Kv 11.1; source: endogenous, on PANC-1 cells (2D and spheroids); in the viability tests also MDA-MB231, MIAPaCa-2, HCT-116
T3 sequence (Q12809 whole entry): as above

B1: scFv-hERG1-Cys (scFv, V domains shown)
VH: EVQLQQSGPELVKPGASVKISCKTSGYTFTEYTVHWVKQSHGKSLEWIGGINPNGGTTYNQKFKGKATLTIDKSSSSAFMELRSLTSEDSAVYYCATGWGPDYWGQGTTLTVSS
VL: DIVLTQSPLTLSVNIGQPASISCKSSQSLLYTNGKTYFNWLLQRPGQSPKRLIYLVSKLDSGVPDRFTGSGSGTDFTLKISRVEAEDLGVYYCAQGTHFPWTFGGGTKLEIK
notes: numbers count on: Kabat scheme of the VH; as the linker of m1; as the VL of m1; also called mutagenized scFv-hERG1; scFv-Cys; source: P. pastoris GS115 (pPIC9K), purified from culture supernatant (HisTrap HP)
fold binding against scFv-hERG1 (ELISA O.D.) [1]: ~2 fold
binding result [2]: binds
Kd [3]: 61.8 nM

B2: scFv-hERG1-Cys-Alexa488 (scFv, V domains shown)
VH: EVQLQQSGPELVKPGASVKISCKTSGYTFTEYTVHWVKQSHGKSLEWIGGINPNGGTTYNQKFKGKATLTIDKSSSSAFMELRSLTSEDSAVYYCATGWGPDYWGQGTTLTVSS
VL: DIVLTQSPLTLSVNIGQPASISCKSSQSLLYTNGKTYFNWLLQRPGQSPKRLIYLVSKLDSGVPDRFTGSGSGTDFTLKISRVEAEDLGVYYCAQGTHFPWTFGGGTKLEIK
notes: numbers count on: Kabat scheme of the VH; as the linker of m1; as the VL of m1; Same protein as m2, with the fluorophore
binding result [4]: binds
binding result [5]: binds
